# Experimental data: publication PMC5755580
# Assays:
# [1] = target: VvPrx3 (C73S) (Vibrio vulnificus); assay: SDS-PAGE under nonreducing or reducing conditions (intermolecular disulfide bond); reduced VvPrx3 (C73S) reacted with various concentrations of H2O2 or t-BOOH for 30 min at 298 K in 20 mM Tris-HCl pH 8.0, 150 mM NaCl; stopped with iodoacetamide; boiled with or without 10 mM DTT
# [2] = target: VvPrx3 (C73S) (Vibrio vulnificus); assay: SDS-PAGE under nonreducing conditions (intermolecular disulfide bond), time course; VvPrx3 (C73S) 70 µM reacted with 50 µM H2O2 for 0-60 s; quenched with 10 mM N-ethylmaleimide; band density by ImageJ
substance,measurement,setting,value
VvPrx3 (C73S) (enzyme),stoichiometry N,[1],2
same,"protein linked by a disulfide bond at 30 s (70 µM protein, 50 µM H2O2)",[2],30 µM
